Some results are limits rather than exact numbers.

For the first test, the target named is prf.GLFG_(52×12), Nup98-type FG domain comprising 52 perfect 12mer GLFG repeat units. As to the kind of experiment: FG phase partitioning.
“conical CLPs of HIV-1 CA I91E, filled with sinGFP4a (complex)” returned a fold reduction of partitioning against wild type above 10 fold.
mCherry registered a partition coefficient below 0.1.
On the same count and under the same terms, under “40 nm capsid spheres of HIV-1 CA N21C, A22C, labelled with ~15% CA-EGFP (complex)” stands 1000; under “conical CLPs (capsid-like particles) of HIV-1 CA wild-type, labelled with ~15% CA-EGFP (complex)”, 1000.
“conical CLPs of HIV-1 CA V86E, filled with sinGFP4a (complex)” gave a fold reduction of partitioning against wild type above 10 fold.
The substance “20 nm T1 pentamer-only capsid spheres of HIV-1 CA G60A, G61P, labelled with ~15% CA-EGFP (complex)” displayed a partition coefficient of 750.
As to EGFP, the partition coefficient is below 0.1.
As for “conical CLPs of HIV-1 CA G94D, filled with sinGFP4a (complex)”, the partitioning relative to the wild-type level worked out at 5%.
Take “conical CLPs of HIV-1 CA H87Q, filled with sinGFP4a (complex)”: the reduction in partitioning against wild type is 50%.
“conical CLPs of HIV-1 CA H87E, filled with sinGFP4a (complex)” came in with a fold reduction of partitioning against wild type of 15 fold.
Substance “conical CLPs of HIV-1 CA R132K, filled with sinGFP4a (complex)” showed a reduction in partitioning against wild type of 50%.
Consider “conical CLPs of HIV-1 CA A88E, filled with sinGFP4a (complex)”, for which the fold reduction of partitioning against wild type was above 10 fold.
The substance “conical CLPs of HIV-1 CA M96E, filled with sinGFP4a (complex)” displayed a fold reduction of partitioning against wild type above 10 fold.
Regarding “conical CLPs of HIV-1 CA A92E, filled with sinGFP4a (complex)”, the fold reduction of partitioning against wild type is above 10 fold and the partitioning relative to the wild-type level was 5%.

For another test, the target named is FG repeat domain of 669 residues with non-charged spacers and 36 FSFG motifs. As to the kind of experiment: FG phase partitioning.
The substance “conical CLPs of HIV-1 CA G89V, filled with sinGFP4a (complex)” displayed a fold more effective entry than wild-type CLPs of 4 fold.

Source of the values: paper doi:10.1101/2025.03.13.643050.
